Results as given in publication PMC4191421.
Values joined by “and” are separate entries in the source; they are usually repeats but may differ in a detail not shown here. Equal entries are not always repeated.

Assays:
[1] = target: BLM RecQ-core (core-BLM) (human) (UniProt P54132); test: smFRET (GQ unfolding); conditions: smFRET: 150 mM K+ (or 50 mM K+, 50/150 mM Na+), 5 mM Mg2+, pH 7.5, EMSA: 50 mM K+, 50 mM Tris-HCl pH 7.5, 1 mM DTT, 22 C; for binding signal: 150 mM K+, saturating BLM; for binding signal (% unfolded at 25 nM): 50 mM Na+
WRN (human) = WRN (human) (UniProt Q14191); test: smFRET (GQ unfolding); conditions: 50 mM Na+, strand 2 is RNA, smFRET: 150 mM K+ (or 50 mM K+, 50/150 mM Na+), 5 mM Mg2+, pH 7.5, EMSA: 50 mM K+, 50 mM Tris-HCl pH 7.5, 1 mM DTT, 22 C
[2] = target: BLM RecQ-core (core-BLM) (human) (UniProt P54132); test: smFRET (GQ unfolding titration, Langmuir); conditions: strand 2 is RNA, smFRET: 150 mM K+ (or 50 mM K+, 50/150 mM Na+), 5 mM Mg2+, pH 7.5, EMSA: 50 mM K+, 50 mM Tris-HCl pH 7.5, 1 mM DTT, 22 C
[3] = target: BLM RecQ-core (core-BLM) (human) (UniProt P54132); test: smFRET; conditions: smFRET: 150 mM K+ (or 50 mM K+, 50/150 mM Na+), 5 mM Mg2+, pH 7.5, EMSA: 50 mM K+, 50 mM Tris-HCl pH 7.5, 1 mM DTT, 22 C
[4] = target: BLM RecQ-core (core-BLM) (human) (UniProt P54132); test: smFRET; conditions: strand 2 is RNA, smFRET: 150 mM K+ (or 50 mM K+, 50/150 mM Na+), 5 mM Mg2+, pH 7.5, EMSA: 50 mM K+, 50 mM Tris-HCl pH 7.5, 1 mM DTT, 22 C
[5] = nt-free, 150 mM Na+, strand 2 is RNA

Chain of BLM RecQ-core (core-BLM) (human) (P54132 642-1290): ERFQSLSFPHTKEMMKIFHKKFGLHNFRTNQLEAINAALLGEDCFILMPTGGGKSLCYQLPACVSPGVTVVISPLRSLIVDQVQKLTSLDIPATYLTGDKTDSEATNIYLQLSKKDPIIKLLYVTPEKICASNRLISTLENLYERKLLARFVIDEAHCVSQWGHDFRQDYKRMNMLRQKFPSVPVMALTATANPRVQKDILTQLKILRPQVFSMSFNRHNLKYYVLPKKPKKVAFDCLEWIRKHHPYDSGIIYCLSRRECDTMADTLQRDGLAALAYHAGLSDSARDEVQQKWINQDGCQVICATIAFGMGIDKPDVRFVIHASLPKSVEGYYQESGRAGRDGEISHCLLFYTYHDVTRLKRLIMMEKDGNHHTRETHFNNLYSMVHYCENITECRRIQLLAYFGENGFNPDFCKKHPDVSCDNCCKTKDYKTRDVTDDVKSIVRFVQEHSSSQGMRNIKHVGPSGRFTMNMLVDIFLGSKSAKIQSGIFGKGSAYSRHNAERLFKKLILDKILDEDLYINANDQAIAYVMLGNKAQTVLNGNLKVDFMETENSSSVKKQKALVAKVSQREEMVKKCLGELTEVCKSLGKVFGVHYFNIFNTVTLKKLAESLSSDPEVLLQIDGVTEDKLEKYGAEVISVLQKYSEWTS
Chain of WRN (human) (Q14191 whole entry): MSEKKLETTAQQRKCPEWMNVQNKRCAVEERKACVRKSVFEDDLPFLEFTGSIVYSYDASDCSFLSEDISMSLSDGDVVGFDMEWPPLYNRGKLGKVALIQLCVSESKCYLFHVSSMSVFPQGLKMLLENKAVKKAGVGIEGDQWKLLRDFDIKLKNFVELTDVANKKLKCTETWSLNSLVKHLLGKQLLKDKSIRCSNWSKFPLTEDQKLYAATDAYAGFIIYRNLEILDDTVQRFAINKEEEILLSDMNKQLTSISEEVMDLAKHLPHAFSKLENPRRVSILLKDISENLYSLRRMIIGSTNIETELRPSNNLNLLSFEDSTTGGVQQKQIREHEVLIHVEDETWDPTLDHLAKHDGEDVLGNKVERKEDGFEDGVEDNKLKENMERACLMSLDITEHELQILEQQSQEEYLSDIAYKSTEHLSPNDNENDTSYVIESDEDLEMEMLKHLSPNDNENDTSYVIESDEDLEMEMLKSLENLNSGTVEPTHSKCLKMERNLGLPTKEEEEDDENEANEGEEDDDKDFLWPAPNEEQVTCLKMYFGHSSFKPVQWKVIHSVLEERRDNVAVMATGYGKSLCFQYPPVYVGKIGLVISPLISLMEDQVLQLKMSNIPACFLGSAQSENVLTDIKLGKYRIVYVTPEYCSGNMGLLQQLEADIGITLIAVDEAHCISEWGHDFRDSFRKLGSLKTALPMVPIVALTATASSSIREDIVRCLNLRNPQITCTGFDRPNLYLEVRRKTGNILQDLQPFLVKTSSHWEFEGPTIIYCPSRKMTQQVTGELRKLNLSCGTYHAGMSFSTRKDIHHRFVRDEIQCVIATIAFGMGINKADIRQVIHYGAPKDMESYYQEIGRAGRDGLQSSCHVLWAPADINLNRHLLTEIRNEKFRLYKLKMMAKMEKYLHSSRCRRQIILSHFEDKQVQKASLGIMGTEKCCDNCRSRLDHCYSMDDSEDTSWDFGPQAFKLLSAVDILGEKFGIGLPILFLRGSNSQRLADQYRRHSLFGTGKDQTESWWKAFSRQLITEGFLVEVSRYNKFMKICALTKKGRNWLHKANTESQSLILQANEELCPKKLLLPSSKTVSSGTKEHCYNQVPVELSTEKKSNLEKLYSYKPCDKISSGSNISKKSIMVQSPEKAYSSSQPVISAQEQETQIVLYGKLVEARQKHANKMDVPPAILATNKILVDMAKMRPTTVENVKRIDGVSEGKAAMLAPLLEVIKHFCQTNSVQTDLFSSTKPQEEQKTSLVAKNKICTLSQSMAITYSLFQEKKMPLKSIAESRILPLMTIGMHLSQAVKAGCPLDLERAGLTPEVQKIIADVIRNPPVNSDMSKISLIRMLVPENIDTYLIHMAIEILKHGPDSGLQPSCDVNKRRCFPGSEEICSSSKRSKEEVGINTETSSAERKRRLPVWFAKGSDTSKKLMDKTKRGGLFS

TTTTTTTTTTTTGGGTTAGGGTTAGGGTTAGGGTTTGGCGACGGCAGCGAGGC / GCCTCGCTGCCGTCGCCA [pd-hGQ12T-5']
binding signal (% unfolded at 1 uM) ([1]; ATPgS, 50 mM K+): 30
binding signal (% unfolded at 1 uM) ([1]; nt-free, 50 mM K+): 21

TGGCGACGGCAGCGAGGCTAGGGTTAGGGTTAGGGTTAGGGTTTTTTTTTTTTTTT / GCCUCGCUGCCGUCGCCA [pd-hGQ15T]
binding signal ([1]; ADP, strand 2 is RNA): 22 % unfolded
binding signal ([1]; ATPgS, strand 2 is RNA): 57 % unfolded
binding signal ([1]; nt-free, strand 2 is RNA): 48 % unfolded

TGGCGACGGCAGCGAGGCTTGGGTGGGTGGGTGGGTTTTTTTTTTTT / GCCUCGCUGCCGUCGCCA [pd-3Ly1Lp12T]
binding signal (% unfolded at 1 uM) ([1]; strand 2 is RNA): 46 and 58

TGGCGACGGCAGCGAGGCTAGGGTTAGGGTTAGGGTTAGGGTTTTTTTTTTTT / GCCUCGCUGCCGUCGCCA [pd-hGQ12T]
binding signal (% unfolded at 25 nM) ([1]; ATPgS, strand 2 is RNA): 25
binding signal (% unfolded at 25 nM) ([1]; nt-free, strand 2 is RNA): 18
binding signal (% unfolded at 300 nM) [1, 5]: 17
binding signal (% unfolded at 1000 nM) [1, 5]: 38
binding signal (% unfolded at 25 nM) (WRN (human); ATPgS): 25
binding signal (% unfolded at 25 nM) (WRN (human); nt-free): 8
K half ([2]; 1 mM ADP, 150 mM K+, alpha 32%): 55 nM
K half ([2]; 1 mM ATPgS, 150 mM K+, alpha 53%): 108 nM
K half ([2]; nt-free, 50 mM K+, alpha 55%): 28 nM
K half ([2]; nt-free, 150 mM K+, alpha 49%): 305 nM

TTTTTTTTTTTTTTTTGGCGACGGCAGCGAGGC / GCCTCGCTGCCGTCGCCA [pd-polyT15-5']
binding signal (% bound at 1 uM) ([3]; 1 mM ATPgS, 50 mM K+): 53

TGGCGACGGCAGCGAGGCTTTTTTTTTTTTTTT / GCCUCGCUGCCGUCGCCA [pd-polyT15]
binding signal (% bound at 1 uM) [4]: 36
binding signal (% bound at 1 uM) ([3]; 1 mM ADP, 150 mM K+, strand 2 is RNA): 12
binding signal (fold higher Keq in 150 vs 50 mM Na+) ([3]; nt-free, strand 2 is RNA): 4.7
binding signal (% bound at 1 uM) ([3]; strand 2 is RNA): 21
